The target of assay [1] is T1, Mouse Id3: Histidine (mouse, UniProt P41133 1-119, limits assumed).
T1 construct: E. coli fusion protein (vector pGW07); also called m-Id3: His; not shown: His-tag
T1 sequence (looked up): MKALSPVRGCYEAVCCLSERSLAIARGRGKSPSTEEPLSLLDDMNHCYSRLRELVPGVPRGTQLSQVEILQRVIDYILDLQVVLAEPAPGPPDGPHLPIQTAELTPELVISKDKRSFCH
As to the kind of experiment: ELISA, coated antigen; relative to mouse Id1. A general note: In an ELISA, binding on a coated surface is turned into a signal by an enzyme label.

Assay [2] has as its target T2, Human Id3: Histidine (human, UniProt Q02535 1-119, limits assumed).
T2 construct: E. coli fusion protein (vector pGW07); also called h-Id3: His; not shown: His-tag
T2 sequence (looked up): T1 sequence (looked up) with S31G, S33A, T34A, K112N
Put plainly: ELISA, coated antigen; relative to mouse Id1.

The target in assay [3] is T3, Mouse Id4: Histidine (mouse, UniProt P41139 1-161, limits assumed).
T3 construct: E. coli fusion protein (vector pGW07); also called m-Id4: His; not shown: His-tag
T3 sequence (looked up): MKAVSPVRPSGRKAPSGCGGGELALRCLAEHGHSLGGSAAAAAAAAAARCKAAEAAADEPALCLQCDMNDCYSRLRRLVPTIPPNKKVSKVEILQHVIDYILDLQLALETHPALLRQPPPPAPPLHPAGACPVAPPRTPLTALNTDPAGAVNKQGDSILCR
As to the kind of experiment: ELISA, coated antigen; relative to mouse Id1.

Assay [4] addresses T4, Human Id4: Histidine (human, UniProt P47928 1-161, limits assumed).
T4 construct: E. coli fusion protein (vector pGW07); also called h-Id4: His; not shown: His-tag
T4 sequence (looked up): T3 sequence (looked up) with L125H, A130T, V133A
As to the kind of experiment: ELISA, coated antigen; relative to mouse Id1.

Assay [5] deals with T5, Human Id2: Histidine (human, UniProt Q02363 1-134, limits assumed).
T5 construct: E. coli fusion protein (vector pGW07); also called h-Id2: His; not shown: His-tag
T5 sequence (looked up): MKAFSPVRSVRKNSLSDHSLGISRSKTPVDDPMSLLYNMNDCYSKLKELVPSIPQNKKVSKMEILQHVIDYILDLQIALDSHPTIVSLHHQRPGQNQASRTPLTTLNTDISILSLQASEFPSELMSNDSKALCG
As to the kind of experiment: ELISA, coated antigen; relative to mouse Id1.

Assay [6] deals with T6, Mouse Id2: Histidine (mouse, UniProt P41136 1-134, limits assumed).
T6 construct: E. coli fusion protein (vector pGW07); also called m-Id2: His; not shown: His-tag
T6 sequence (looked up): T5 sequence (looked up) with S60T, A131V
As to the kind of experiment: ELISA, coated antigen; relative to mouse Id1.

Assay [7] deals with T7, Mouse Id1: Histidine (mouse, UniProt P20067-2 1-148).
T7 construct: E. coli fusion protein (vector pGW07); also called m-Id1-His; not shown: His-tag
T7 sequence: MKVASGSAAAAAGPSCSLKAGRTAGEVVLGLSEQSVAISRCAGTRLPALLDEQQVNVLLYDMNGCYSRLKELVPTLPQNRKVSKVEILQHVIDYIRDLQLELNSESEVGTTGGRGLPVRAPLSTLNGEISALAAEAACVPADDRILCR
As to the kind of experiment: ELISA, coated antigen, Ab 0.100 ug/ml.

Assay [8] deals with T1, Mouse Id3: Histidine. As to the kind of experiment: ELISA, coated antigen, Ab 0.100 ug/ml.
In assay [9] the target is T2, Human Id3: Histidine. As to the kind of experiment: ELISA, coated antigen, Ab 0.100 ug/ml.
For assay [10], the target named is T3, Mouse Id4: Histidine. As to the kind of experiment: ELISA, coated antigen, Ab 0.100 ug/ml.
Assay [11] addresses T4, Human Id4: Histidine. As to the kind of experiment: ELISA, coated antigen, Ab 0.100 ug/ml.
Assay [12] deals with T5, Human Id2: Histidine. Put plainly: ELISA, coated antigen, Ab 0.100 ug/ml.
In assay [13] the target is T6, Mouse Id2: Histidine. Put plainly: ELISA, coated antigen, Ab 0.100 ug/ml.
The target of assay [14] is T7, Mouse Id1: Histidine. As to the kind of experiment: ELISA, coated antigen, Ab 0.010 ug/ml.
In assay [15] the target is T3, Mouse Id4: Histidine. As to the kind of experiment: ELISA, coated antigen, Ab 0.010 ug/ml.
Assay [16] deals with T4, Human Id4: Histidine. As to the kind of experiment: ELISA, coated antigen, Ab 0.010 ug/ml.
In assay [17] the target is T5, Human Id2: Histidine. Put plainly: ELISA, coated antigen, Ab 0.010 ug/ml.
The target in assay [18] is T7, Mouse Id1: Histidine. Put plainly: ELISA, coated antigen, Ab 0.000 ug/ml (blank, diluent only).
For assay [19], the target named is T1, Mouse Id3: Histidine. The description is as above.
Assay [20] addresses T2, Human Id3: Histidine. The assay is described as above.
The target of assay [21] is T4, Human Id4: Histidine. The description is as above.
The target of assay [22] is T5, Human Id2: Histidine. The assay is described as above.

Residue numbers refer to the chain shown, from its start.

“rabbit monoclonal anti-mouse/human Id1, clone #BCH-1/#195-14 (antibody)”: the Cross-reactivity (%) with Mouse Id3: Histidine [1], in the assay with Human Id3: Histidine [2], with Mouse Id4: Histidine [3], with Human Id4: Histidine [4], in the assay with Human Id2: Histidine [5] and in the assay with Mouse Id2: Histidine [6] was below 1% each time. Moreover, the A450 stood at 2.04 A450 in the assay with Mouse Id1: Histidine [7]; 0.05 A450 with Mouse Id3: Histidine [8]; 0.047 A450 in the assay with Human Id3: Histidine [9]; 0.049 A450 in the assay with Mouse Id4: Histidine [10]; 0.049 A450 in the assay with Human Id4: Histidine [11]; 0.053 A450 with Human Id2: Histidine [12]. For the same molecule, the A450 in the assay with Mouse Id2: Histidine [13] was determined as 0.054 A450; with Mouse Id1: Histidine [14], 0.424 A450; with Mouse Id4: Histidine [15] it was 0.045 A450; with Human Id4: Histidine [16] it was 0.046 A450; in the assay with Human Id2: Histidine [17], 0.054 A450; with Mouse Id1: Histidine [18], 0.045 A450. In addition, the A450 was 0.05 A450 with Mouse Id3: Histidine [19], 0.049 A450 in the assay with Human Id3: Histidine [20], 0.046 A450 in the assay with Human Id4: Histidine [21] and 0.058 A450 with Human Id2: Histidine [22].

Take “rabbit monoclonal anti-human Id1, clone #BCH-2/#5-3 (antibody)”: the A450 with Mouse Id1: Histidine [7] was 0.068 A450; in the assay with Mouse Id3: Histidine [8], 0.05 A450; with Human Id3: Histidine [9], 0.046 A450; with Mouse Id4: Histidine [10], 0.049 A450; with Human Id4: Histidine [11], 0.047 A450; with Human Id2: Histidine [12] it was 0.054 A450. For the same molecule, the A450 amounted to 0.049 A450 in the assay with Mouse Id2: Histidine [13]; 0.068 A450 with Mouse Id1: Histidine [14]; 0.043 A450 with Mouse Id4: Histidine [15]; 0.045 A450 in the assay with Human Id4: Histidine [16]; 0.046 A450 with Human Id2: Histidine [17]; 0.046 A450 in the assay with Mouse Id1: Histidine [18]. Further, the A450 in the assay with Mouse Id3: Histidine [19] was found to be 0.058 A450; with Human Id3: Histidine [20], 0.052 A450; with Human Id4: Histidine [21], 0.046 A450; with Human Id2: Histidine [22] it was 0.049 A450.

B1: rabbit monoclonal anti-mouse Id1, clone #BCH-1/#37-2 (antibody, V domains shown)
VH: QSVEESGGRLVTPGTPLTLTCKVSGFDINSYAMDWFRQAPGKGLEWIGMMSTRGNTYYTSWAKGRFTISKTSSTTVDLKMTSLTTEDTATYFCARGGLWGPGTLVTVSS
VL: RVLTQTASPVSAAVGGTVTINCQASQSVYNGNRLGWYQLKPGQSPKELIHDASTLASGVPSRFRGSGSGTQFTLTINDVQCDDAATYYCVGSYACSTGDCNVFGGGTEVVVK
notes: Rabbit IgG from hybridoma, Protein G purified; also called m Id1 MoAb 37-2; Rabbit Monoclonal Anti-Mouse Id1 (#37-2)
As for B1, the “Cross-reactivity (%)” value with Mouse Id3: Histidine [1], in the assay with Human Id3: Histidine [2], with Mouse Id4: Histidine [3], in the assay with Human Id4: Histidine [4], with Human Id2: Histidine [5] and with Mouse Id2: Histidine [6] was below 1% throughout.

These data come from patent US20060286609A1 (BIOCHECK, published 2006).
